# Data taken from patent US20150132859A1.
# Assays:
# [1] = target: EcSS-TpN17-Bi(DDS) (Treponema pallidum (TpN17 part); E. coli (SlyD part)); test: DAGS ECL; detection PmSS-TpN17-Ru; EcSkp-VcLp15 0 ug/ml in R1
# [2] = target: EcSS-TpN17-Bi(DDS) (Treponema pallidum (TpN17 part); E. coli (SlyD part)); test: DAGS ECL; detection PmSS-TpN17-Ru; EcSlyD-VcLp15 0 ug/ml in R1
# [3] = target: EcFkpA-TpN17-Bi(DDS) (Treponema pallidum (TpN17 part); E. coli (FkpA part)); test: DAGS ECL; detection EcSkp-TpN17-Ru; EcSkp-VcLp15 0 ug/ml in R1
# [4] = target: EcFkpA-TpN17-Bi(DDS) (Treponema pallidum (TpN17 part); E. coli (FkpA part)); test: DAGS ECL; detection EcSkp-TpN17-Ru; EcSlyD-VcLp15 0 ug/ml in R1
# [5] = target: EcSS-TpN17-Bi(DDS) (Treponema pallidum (TpN17 part); E. coli (SlyD part)); test: DAGS ECL; detection PmSS-TpN17-Ru; competitor EcSkp-VcLp15 0.1 ug/ml in R1
# [6] = target: EcSS-TpN17-Bi(DDS) (Treponema pallidum (TpN17 part); E. coli (SlyD part)); test: DAGS ECL; detection PmSS-TpN17-Ru; competitor EcSkp-VcLp15 1.0 ug/ml in R1
# [7] = target: EcSS-TpN17-Bi(DDS) (Treponema pallidum (TpN17 part); E. coli (SlyD part)); test: DAGS ECL; detection PmSS-TpN17-Ru; competitor EcSlyD-VcLp15 0.1 ug/ml in R1
# [8] = target: EcSS-TpN17-Bi(DDS) (Treponema pallidum (TpN17 part); E. coli (SlyD part)); test: DAGS ECL; detection PmSS-TpN17-Ru; competitor EcSlyD-VcLp15 0.2 ug/ml in R1
# [9] = target: EcSS-TpN17-Bi(DDS) (Treponema pallidum (TpN17 part); E. coli (SlyD part)); test: DAGS ECL; detection PmSS-TpN17-Ru; competitor EcSlyD-VcLp15 0.3 ug/ml in R1
# [10] = target: EcSS-TpN17-Bi(DDS) (Treponema pallidum (TpN17 part); E. coli (SlyD part)); test: DAGS ECL; detection PmSS-TpN17-Ru; competitor EcSlyD-VcLp15 0.5 ug/ml in R1
# [11] = target: EcSS-TpN17-Bi(DDS) (Treponema pallidum (TpN17 part); E. coli (SlyD part)); test: DAGS ECL; detection PmSS-TpN17-Ru; competitor EcSlyD-VcLp15 1.0 ug/ml in R1
# [12] = target: EcFkpA-TpN17-Bi(DDS) (Treponema pallidum (TpN17 part); E. coli (FkpA part)); test: DAGS ECL; detection EcSkp-TpN17-Ru; competitor EcSkp-VcLp15 0.1 ug/ml in R1
# [13] = target: EcFkpA-TpN17-Bi(DDS) (Treponema pallidum (TpN17 part); E. coli (FkpA part)); test: DAGS ECL; detection EcSkp-TpN17-Ru; competitor EcSkp-VcLp15 1.0 ug/ml in R1
# [14] = target: EcFkpA-TpN17-Bi(DDS) (Treponema pallidum (TpN17 part); E. coli (FkpA part)); test: DAGS ECL; detection EcSkp-TpN17-Ru; competitor EcSlyD-VcLp15 0.1 ug/ml in R1
# [15] = target: EcFkpA-TpN17-Bi(DDS) (Treponema pallidum (TpN17 part); E. coli (FkpA part)); test: DAGS ECL; detection EcSkp-TpN17-Ru; competitor EcSlyD-VcLp15 0.2 ug/ml in R1
# [16] = target: EcFkpA-TpN17-Bi(DDS) (Treponema pallidum (TpN17 part); E. coli (FkpA part)); test: DAGS ECL; detection EcSkp-TpN17-Ru; competitor EcSlyD-VcLp15 0.3 ug/ml in R1
# [17] = target: EcFkpA-TpN17-Bi(DDS) (Treponema pallidum (TpN17 part); E. coli (FkpA part)); test: DAGS ECL; detection EcSkp-TpN17-Ru; competitor EcSlyD-VcLp15 0.5 ug/ml in R1
# [18] = target: EcFkpA-TpN17-Bi(DDS) (Treponema pallidum (TpN17 part); E. coli (FkpA part)); test: DAGS ECL; detection EcSkp-TpN17-Ru; competitor EcSlyD-VcLp15 1.0 ug/ml in R1
Substance,counts [1] [counts],counts [2] [counts],counts [3] [counts],counts [4] [counts],counts [5] [counts],counts [6] [counts],counts [7] [counts],counts [8] [counts],counts [9] [counts],counts [10] [counts],counts [11] [counts],counts [12] [counts],counts [13] [counts],counts [14] [counts],counts [15] [counts],counts [16] [counts],counts [17] [counts],counts [18] [counts]
Trina #0646,651,634,840,797,659,646,617,634,628,621,613,847,815,795,817,802,784,784
Trina #0647,,623,,774,,,614,606,620,618,623,,,786,764,773,762,742
Trina #0642,673,657,750,778,673,632,613,638,626,623,610,757,744,716,722,698,698,661
